# Assay results reported in US20180002379.
# Assays:
# Assay in all cases: cell_activity
# [1] = test system: ZFN SBS#46696 (synthetic)
# [2] = test system: ZFN SBS#20505 (synthetic)
# [3] = test system: ZFN SBS#46697 (synthetic)
# [4] = test system: ZFN SBS#46693 (synthetic)
# [5] = test system: ZFN SBS#46705 (synthetic)
# ZFN SBS#8266 (synthetic) = test system: ZFN SBS#8266 (synthetic)
# [6] = test system: ZFN SBS#46698 (synthetic)
# [7] = test system: ZFN SBS#46700 (synthetic)
# [8] = pair 46700:46705 at CCR2, GFP 0.05
sequence,measurement,setting,value
AAACTGCAAAAA (double strand) [CCR2 right half-site],activity,"[1]; pair 46693:46696 at CCR2, background level, no SELEX evidence of binding the CCR2 adenine",0.01 % indel
same,activity,"[2]; pair 8266:20505 at CCR2, K562",5.23 % indel
same,activity,"[3]; pair 46693:46697 at CCR2, no SELEX evidence of binding the CCR2 adenine",0.07 % indel
AAACTGCAAAAG (double strand) [CCR5 right half-site (20505)],activity,"[2]; pair 8266:20505, K562",29.9 % indel
AGGATGAGGATGACCAGCATGTTGTTGC (double strand) [CCR5 left target],activity,"[4]; pair 46693:46697, K562, GFP 0.01",10 % indel
ATAAACTGCAAAAGGCTGAAGAGCATGA (double strand) [CCR5 right target],activity,"[1]; pair 46693:46696, K562, printed 417, 632 of 15162 reads",4.17 % indel
same,activity,"[3]; pair 46693:46697, K562",10 % indel
CAAAAAGCTGAAGTGCTT (double strand) [CCR2 shifted right half-site],activity,[5]; [8],0.08 % indel
GATGAGGATGAC (double strand) [CCR5 left half-site (8266)],activity,"ZFN SBS#8266 (synthetic); pair 8266:20505, K562",29.9 % indel
GGTCGTCCTCATCTTAAT (double strand) [CCR2 shifted left half-site],activity,[6]; pair 46698:46705 at CCR2,0 % indel
same,activity,[7]; [8],0.08 % indel
GTCGTCCTCATC (double strand) [CCR2 left half-site],activity,"[4]; pair 46693:46697 at CCR2, p 0.0013",0.07 % indel
same,activity,"ZFN SBS#8266 (synthetic); pair 8266:20505 at CCR2, K562",5.23 % indel
TGCAAAAGGCTGAAGAGCATGACTGACA (double strand) [CCR5 shifted right 6F],activity,"[5]; pair 46700:46705, K562, GFP 0.03",27.4 % indel
TTATCAGGATGAGGATGACCAGCATGTT (double strand) [CCR5 shifted left 4F],activity,"[6]; pair 46698:46705, K562",23.8 % indel
TTATCAGGATGAGGATGACCAGCATGTT (double strand) [CCR5 shifted left 6F],activity,"[7]; pair 46700:46705, K562",27.4 % indel
